One block for each binder: values may come before it. Where no end group is shown, it is not given here.
Experiments:
[1] = biological target: T1, type II collagen gelatin; experiment: ELISA-type plate binding assay, biotinylated protein on gelatin-coated plate
T1 construct: Denatured collagen, coated on plates (ELISA-type assay, cell adhesion) or added in solution (NMR); also called type II gelatin; collagen type II gelatin

[2] = biological target: type I collagen gelatin (skin gelatin); experiment: as above
[3] = biological target: type I collagen gelatin (skin gelatin); experiment: ELISA-type plate binding assay, comparison of apparent Kd
[4] = biological target: T1, type II collagen gelatin; experiment: cell-based or functional assay
[5] = biological target: T1, type II collagen gelatin; experiment: ELISA-type plate binding assay, comparison of Kd (summary of the Examples)
[6] = biological target: T1, type II collagen gelatin; experiment: ELISA-type plate binding assay, comparison of Kd
Protocol: The chimeric peptides were assessed for binding to collagen type I and type II gelatin using the plate binding assay (described in the materials and methods section). […] A peptide comprising three modules corresponding to module 1 was not tested.

Chain of type I collagen gelatin (skin gelatin) (P02453 162-1217, chain 1 of 2): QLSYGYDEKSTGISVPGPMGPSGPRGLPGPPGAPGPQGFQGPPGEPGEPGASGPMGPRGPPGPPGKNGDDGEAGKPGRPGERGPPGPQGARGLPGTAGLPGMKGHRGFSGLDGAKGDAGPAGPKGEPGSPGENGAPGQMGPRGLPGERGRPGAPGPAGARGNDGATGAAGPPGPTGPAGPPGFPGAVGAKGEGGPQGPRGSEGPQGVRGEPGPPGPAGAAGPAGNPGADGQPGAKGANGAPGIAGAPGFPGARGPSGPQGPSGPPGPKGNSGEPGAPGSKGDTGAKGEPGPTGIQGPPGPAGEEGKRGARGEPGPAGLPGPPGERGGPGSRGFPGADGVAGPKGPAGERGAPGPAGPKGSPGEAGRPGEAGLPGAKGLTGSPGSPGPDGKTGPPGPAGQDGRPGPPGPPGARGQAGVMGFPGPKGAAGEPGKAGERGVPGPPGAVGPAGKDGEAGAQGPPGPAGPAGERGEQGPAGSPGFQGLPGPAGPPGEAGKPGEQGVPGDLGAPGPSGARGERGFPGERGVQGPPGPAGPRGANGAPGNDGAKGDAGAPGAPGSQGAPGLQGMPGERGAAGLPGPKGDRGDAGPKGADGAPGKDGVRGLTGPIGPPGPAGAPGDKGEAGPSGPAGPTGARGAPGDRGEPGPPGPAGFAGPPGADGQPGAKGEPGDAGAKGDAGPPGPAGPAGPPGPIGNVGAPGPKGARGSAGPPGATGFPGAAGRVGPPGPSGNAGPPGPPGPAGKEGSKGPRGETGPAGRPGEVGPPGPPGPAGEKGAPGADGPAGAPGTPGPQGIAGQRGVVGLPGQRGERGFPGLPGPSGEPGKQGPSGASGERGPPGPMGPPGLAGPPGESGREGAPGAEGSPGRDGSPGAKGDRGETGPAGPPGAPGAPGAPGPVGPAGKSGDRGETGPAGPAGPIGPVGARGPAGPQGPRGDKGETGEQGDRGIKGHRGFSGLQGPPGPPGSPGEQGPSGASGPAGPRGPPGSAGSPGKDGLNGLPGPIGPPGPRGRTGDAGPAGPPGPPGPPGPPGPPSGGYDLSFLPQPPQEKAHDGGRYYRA
Chain of type I collagen gelatin (skin gelatin) (P02465 80-1117, chain 2 of 2, further chain): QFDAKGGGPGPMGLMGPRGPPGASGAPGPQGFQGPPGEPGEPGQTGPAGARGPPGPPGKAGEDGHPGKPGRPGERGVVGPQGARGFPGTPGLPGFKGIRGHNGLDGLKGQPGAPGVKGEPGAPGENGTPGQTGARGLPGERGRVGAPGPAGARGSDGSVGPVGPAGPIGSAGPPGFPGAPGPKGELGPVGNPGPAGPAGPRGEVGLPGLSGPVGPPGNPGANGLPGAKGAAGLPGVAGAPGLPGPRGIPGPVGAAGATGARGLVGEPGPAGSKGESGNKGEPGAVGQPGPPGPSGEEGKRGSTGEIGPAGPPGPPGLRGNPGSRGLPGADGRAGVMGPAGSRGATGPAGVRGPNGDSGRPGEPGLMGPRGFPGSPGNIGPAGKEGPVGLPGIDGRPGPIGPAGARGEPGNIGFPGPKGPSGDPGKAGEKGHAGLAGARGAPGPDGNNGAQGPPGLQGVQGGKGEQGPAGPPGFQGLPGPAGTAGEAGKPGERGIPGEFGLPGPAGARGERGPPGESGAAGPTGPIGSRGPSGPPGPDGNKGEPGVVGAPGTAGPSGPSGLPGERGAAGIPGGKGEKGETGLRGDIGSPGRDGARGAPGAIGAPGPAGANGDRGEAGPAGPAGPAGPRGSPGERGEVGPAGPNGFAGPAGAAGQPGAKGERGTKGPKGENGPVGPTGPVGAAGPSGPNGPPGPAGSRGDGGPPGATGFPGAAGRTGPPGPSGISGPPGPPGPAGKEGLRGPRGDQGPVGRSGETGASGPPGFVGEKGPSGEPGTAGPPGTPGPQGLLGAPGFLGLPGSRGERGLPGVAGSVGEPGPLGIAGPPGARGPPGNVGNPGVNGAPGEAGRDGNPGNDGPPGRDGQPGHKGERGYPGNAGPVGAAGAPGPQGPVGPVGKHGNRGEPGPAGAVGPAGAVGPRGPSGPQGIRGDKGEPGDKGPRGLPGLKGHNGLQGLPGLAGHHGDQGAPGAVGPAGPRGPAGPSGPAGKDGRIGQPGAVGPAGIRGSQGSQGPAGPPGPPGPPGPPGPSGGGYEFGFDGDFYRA

Binder: AEGQPCKFPFRFQGTSYDSCTTEGRTDGYRWCGTTEDYDRDKKYGFCPE (other, cysteine pairing not given here; also: biotinylated for plate binding assay, also called M2) [module 2 of the CBD of MMP-2]
- Kd [1]: 4260 nM
- Kd [2]: 3720 nM

B2: conjugate comprising MSCs and the peptide 222 (other)
chain: EGQVVFTMYGNAEGQPCKFPFRFQGTSYDSCTTEGRTDGYRWCGTTEDYDRDKKYGFCPHEALFTMGGNAEGQPCKFPFRFQGTSYDSCTTEGRTDGYRWCGTTEDYDRDKKYGFCPETALFTMGGNAEGQPCKFPFRFQGTSYDSCTTEGRTDGYRWCGTTEDYDRDKKYGFCPDQGYSL
modifications: carboxylic residues cationised by covalent coupling of N,N'-dimethyl-1,3-propanediamine (DMPA); corona of glycolic acid ethoxylate 4-nonylphenyl ether surfactant; incorporated into the membrane of mesenchymal stem cells
- median % adhesion relative to plastic [4]: 224%

B4: collagen binding domain (CBD) of gelatinase A (MMP-2) (other)
chain: ADGEYCKFPFLFNGKEYNSCTDTGRSDGFLWCSTTYNFEKDGKYGFCPHEALFTMGGNAEGQPCKFPFRFQGTSYDSCTTEGRTDGYRWCGTTEDYDRDKKYGFCPETAMSTVGGNSEGAPCVFPFTFLGNKYESCTSAGRSDGKMWCATTANYDDDRKWGFCPD
notes: Expressed in Shuffle T7 E. coli with a His6-SUMO tag that was cleaved off; also called CBD of MMP-2; Full length CBD
- Kd [1]: 20.4 nM
- Kd [2]: 2.58 nM

Now from value to binder:

- Kd [1]: 117 nM
- Kd [2]: 0.0159 nM
B1: peptide 333 comprising three modules corresponding to module 3 of the CBD of MMP-2 (designed binder)
chain: EGQVVSTVYGNSEGAPCVFPFTFLGNKYESCTSAGRSDGFLWCATTANYDDDRKWGFCPHEALFTMGGNSEGAPCVFPFTFLGNKYESCTSAGRSDGKRWCATTANYDDDRKWGFCPETAMSTVGGNSEGAPCVFPFTFLGNKYESCTSAGRSDGKMWCATTANYDDDRKWGFCPDQGYSL

- Kd [1]: 12000 nM
- Kd [2]: 4090 nM
- fold better binding than to type II gelatin [3]: 3 fold
Binder: SEGAPCVFPFTFLGNKYESCTSAGRSDGKMWCATTANYDDDRKWGFCPD (other, cysteine pairing not given here; also: biotinylated for plate binding assay, also called M3) [module 3 of the CBD of MMP-2]

- fold higher affinity than the naturally occurring CBD of MMP-2 [5]: ~14 fold
- Kd [1]: 1.46 nM
- Kd [2]: 0.497 nM
- fold higher affinity than 333 [6]: 10 fold
- fold higher affinity than the full length CBD [6]: 10 fold
B3: peptide 222 comprising three modules corresponding to module 2 of the CBD of MMP-2 (designed binder)
chain: B2 chain
notes: Expressed in Shuffle cells with a His6-SUMO tag that was cleaved off
